From patent publication US20210208163A1 (RUSH UNIVERSITY MEDICAL CENTER, published 2021)

B1: human ICOSL (inducible co-stimulator ligand), full-length, isoform 1, N-terminal His-tag (ligand, not shown: small tags and cut ends)
chain: DTQEKEVRAMVGSDVELSCACPEGSRFDLNDVYVYWQTSESKTVVTYHIPQNSSLENVDSRYRNRALMSPAGMLRGDFSLRLFNVTPQDEQKFHCLVLSQSLGFQEVLSVEVTLHVAANFSVPVVSAPHSPSQDELTFTCTSINGYPRPNVYWINKTDNSLLDQALQNDTVFLNMRGLYDVVSVLRIARTPSVNIGCCIENVLLQQNLTVGSQTGNDIGERDKITENPVSTGEKNAAT
notes: The reagent list also names a bought human ICOSL-His Tag (Thermo Fisher 11559H08H50); also called hICOSL; B7h
B2: mouse ICOSL, wild type (RGD), full-length, N-terminal His-tag (ligand, not shown: small tags and cut ends)
chain: ETEVGAMVGSNVVLSCIDPHRRHFNLSGLYVYWQIENPEVSVTYYLPYKSPGINVDSSYKNRGHLSLDSMKQGNFSLYLKNVTPQDTQEFTCRVFMNTATELVKILEEVVRLRVAANFSTPVISTSDSSNPGQERTYTCMSKNGYPEPNLYWINTTDNSLIDTALQNNTVYLNKLGLYDVISTLRLPWTSRGDVLCCVENVALHQNITSISQAESFTGNNTKNPQETHNNE
notes: also called mICOSL; WT mICOSL
B3: recombinant human ICOS (R&D Systems, 169-CS) (receptor, UniProt Q9Y6W8 21-141, looked up)
chain: EINGSANYEMFIFHNGGVQILCKYPDIVQQFKMQLLKGGQILCDLTKTKGSGNTVSIKSLKFCHSQLSNNSVSFFLYNLDHSHANYYFCNLSIFDPPPFKVTLTGGYLHIYESQLCCQLKF
B4: recombinant human B7.1 (R&D Systems, 140-B1) (ligand, UniProt P33681 35-242, looked up)
chain: VIHVTKEVKEVATLSCGHNVSVEELAQTRIYWQKEKKMVLTMMSGDMNIWPEYKNRTIFDITNNLSIVILALRPSDEGTYECVVLKYEKDAFKREHLAEVTLSVKADFPTPSISDFEIPTSNIRRIICSTSGGFPEPHLSWLENGEELNAINTTVSQDPETELYAVSSKLDFNMTTNHSFMCLIKYGHLRVNQTFNWNTTKQEHFPDN
notes: also called RGD-lacking B7.1

How the values were obtained:
[1] = target: T1, recombinant human integrin αvβ3 (R&D Systems, 3050-AV) (human, UniProt P06756 31-992; P05106 27-718); assay: SPR (Biacore T200), ICOSL immobilised on CM5, αvβ3 as analyte, Mn2+ (active integrin), kinetic 1:1 Langmuir fit (kd/ka)
T1 construct: Analyte in SPR; also called αvβ3 integrin
T1 sequence (P06756 31-992 limits assumed, chain 1 of 2): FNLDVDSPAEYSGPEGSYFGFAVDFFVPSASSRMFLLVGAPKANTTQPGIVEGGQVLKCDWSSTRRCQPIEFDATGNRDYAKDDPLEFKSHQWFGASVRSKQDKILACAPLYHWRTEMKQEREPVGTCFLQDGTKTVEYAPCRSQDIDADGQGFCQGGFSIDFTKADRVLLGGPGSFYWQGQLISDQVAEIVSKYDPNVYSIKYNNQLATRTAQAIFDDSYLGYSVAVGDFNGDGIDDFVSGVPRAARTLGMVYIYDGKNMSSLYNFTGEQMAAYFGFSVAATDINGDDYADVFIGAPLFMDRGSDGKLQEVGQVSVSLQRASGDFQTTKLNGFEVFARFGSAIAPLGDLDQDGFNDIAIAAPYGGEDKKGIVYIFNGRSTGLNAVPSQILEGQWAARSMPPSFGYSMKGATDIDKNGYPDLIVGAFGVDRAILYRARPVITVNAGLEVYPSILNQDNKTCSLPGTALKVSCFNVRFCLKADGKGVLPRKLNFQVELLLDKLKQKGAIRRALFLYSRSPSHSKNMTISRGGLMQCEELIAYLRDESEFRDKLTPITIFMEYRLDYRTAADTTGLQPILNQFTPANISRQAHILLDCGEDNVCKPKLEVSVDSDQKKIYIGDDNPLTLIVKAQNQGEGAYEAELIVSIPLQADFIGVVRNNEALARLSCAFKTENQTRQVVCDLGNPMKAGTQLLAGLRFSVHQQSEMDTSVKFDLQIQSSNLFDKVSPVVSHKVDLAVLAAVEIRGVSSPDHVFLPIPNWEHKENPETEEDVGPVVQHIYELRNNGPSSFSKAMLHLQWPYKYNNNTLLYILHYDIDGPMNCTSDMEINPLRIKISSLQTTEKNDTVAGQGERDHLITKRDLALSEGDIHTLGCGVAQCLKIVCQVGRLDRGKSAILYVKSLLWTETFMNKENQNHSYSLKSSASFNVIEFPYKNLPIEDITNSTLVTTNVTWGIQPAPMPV
T1 sequence (P05106 27-718 limits assumed, chain 2 of 2): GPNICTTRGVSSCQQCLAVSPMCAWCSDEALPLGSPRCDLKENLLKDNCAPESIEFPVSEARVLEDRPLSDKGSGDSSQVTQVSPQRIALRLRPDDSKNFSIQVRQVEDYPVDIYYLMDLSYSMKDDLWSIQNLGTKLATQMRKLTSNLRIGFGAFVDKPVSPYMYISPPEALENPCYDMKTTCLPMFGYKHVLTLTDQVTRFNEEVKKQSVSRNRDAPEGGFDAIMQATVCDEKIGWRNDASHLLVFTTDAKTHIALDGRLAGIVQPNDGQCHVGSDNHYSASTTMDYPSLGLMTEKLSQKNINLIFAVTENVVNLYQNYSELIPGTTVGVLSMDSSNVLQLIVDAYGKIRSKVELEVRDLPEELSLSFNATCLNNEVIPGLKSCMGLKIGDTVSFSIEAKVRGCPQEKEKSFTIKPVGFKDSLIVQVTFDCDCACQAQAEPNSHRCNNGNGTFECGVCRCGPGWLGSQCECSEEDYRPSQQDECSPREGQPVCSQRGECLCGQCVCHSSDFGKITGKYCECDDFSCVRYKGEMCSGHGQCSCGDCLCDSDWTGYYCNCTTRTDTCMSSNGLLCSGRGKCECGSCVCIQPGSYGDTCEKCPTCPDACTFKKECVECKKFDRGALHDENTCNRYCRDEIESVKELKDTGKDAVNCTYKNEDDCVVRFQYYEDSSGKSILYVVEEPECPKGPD

[2] = target: recombinant human integrin αvβ5 (R&D Systems, 2528-AV) (human, UniProt P06756 31-992; P18084 24-719); assay: SPR, ICOSL immobilised, integrin as analyte
Chain of recombinant human integrin αvβ5 (R&D Systems, 2528-AV) (P06756 31-992 limits assumed, chain 1 of 2): as the sequence (P06756 31-992 limits assumed, chain 1 of 2) above
Chain of recombinant human integrin αvβ5 (R&D Systems, 2528-AV) (P18084 24-719 limits assumed, chain 2 of 2): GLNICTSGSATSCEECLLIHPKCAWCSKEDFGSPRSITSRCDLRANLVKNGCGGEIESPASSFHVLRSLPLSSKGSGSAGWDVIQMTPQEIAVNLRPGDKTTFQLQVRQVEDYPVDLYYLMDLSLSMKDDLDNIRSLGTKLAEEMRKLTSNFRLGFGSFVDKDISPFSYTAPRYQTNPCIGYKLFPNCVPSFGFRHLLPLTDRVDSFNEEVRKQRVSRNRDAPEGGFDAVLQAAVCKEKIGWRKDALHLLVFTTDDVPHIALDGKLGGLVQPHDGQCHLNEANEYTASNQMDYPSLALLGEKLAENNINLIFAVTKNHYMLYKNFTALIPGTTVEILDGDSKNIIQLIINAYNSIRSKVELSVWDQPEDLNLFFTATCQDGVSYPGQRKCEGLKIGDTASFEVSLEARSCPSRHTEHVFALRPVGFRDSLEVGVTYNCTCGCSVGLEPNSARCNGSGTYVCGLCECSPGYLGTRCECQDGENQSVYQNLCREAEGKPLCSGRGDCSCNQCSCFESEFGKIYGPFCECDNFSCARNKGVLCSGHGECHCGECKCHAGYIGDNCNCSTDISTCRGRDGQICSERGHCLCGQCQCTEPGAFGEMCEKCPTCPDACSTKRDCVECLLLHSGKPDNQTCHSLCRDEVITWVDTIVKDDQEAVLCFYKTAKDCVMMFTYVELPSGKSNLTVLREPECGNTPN

[3] = target: T2, recombinant human integrin αIIbβ3 (R&D Systems, 7148-A2) (human, UniProt P08514 32-993; P05106 27-718); assay: SPR, ICOSL immobilised, integrin as analyte
T2 construct: also called αllbβ3
T2 sequence (P08514 32-993 limits assumed, chain 1 of 2): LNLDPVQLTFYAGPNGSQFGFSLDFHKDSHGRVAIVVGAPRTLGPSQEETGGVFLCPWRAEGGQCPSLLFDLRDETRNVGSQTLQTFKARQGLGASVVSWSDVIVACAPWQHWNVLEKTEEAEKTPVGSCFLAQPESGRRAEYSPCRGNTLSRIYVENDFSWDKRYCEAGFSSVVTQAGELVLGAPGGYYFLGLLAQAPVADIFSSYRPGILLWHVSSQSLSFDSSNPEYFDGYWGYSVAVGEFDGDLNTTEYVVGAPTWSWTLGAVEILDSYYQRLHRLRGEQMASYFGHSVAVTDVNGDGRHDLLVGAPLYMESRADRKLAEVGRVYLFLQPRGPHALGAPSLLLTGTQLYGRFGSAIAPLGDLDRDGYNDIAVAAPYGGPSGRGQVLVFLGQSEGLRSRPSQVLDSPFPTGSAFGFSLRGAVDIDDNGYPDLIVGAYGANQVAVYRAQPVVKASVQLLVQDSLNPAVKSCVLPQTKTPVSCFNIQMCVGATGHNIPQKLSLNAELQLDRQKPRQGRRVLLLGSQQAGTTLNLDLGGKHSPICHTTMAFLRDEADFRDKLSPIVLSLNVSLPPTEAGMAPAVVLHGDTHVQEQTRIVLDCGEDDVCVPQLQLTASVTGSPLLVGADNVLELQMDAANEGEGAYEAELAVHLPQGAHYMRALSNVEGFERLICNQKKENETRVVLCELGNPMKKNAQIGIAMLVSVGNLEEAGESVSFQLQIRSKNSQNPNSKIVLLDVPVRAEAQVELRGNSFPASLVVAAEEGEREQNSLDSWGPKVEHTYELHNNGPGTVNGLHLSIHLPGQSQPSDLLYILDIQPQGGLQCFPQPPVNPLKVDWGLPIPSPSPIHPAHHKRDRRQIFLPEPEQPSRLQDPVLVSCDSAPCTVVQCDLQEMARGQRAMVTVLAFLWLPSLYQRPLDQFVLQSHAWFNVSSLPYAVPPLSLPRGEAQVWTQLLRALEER
T2 sequence (P05106 27-718 limits assumed, chain 2 of 2): as the sequence (P05106 27-718 limits assumed, chain 2 of 2) above

[4] = target: T1, recombinant human integrin αvβ3 (R&D …); assay: SPR, ICOSL immobilised, inactive αvβ3 (EDTA, no Mn2+), steady-state affinity fit
[5] = target: T3, recombinant mouse integrin αvβ3 (R&D Systems, 7889-AV-050) (mouse, UniProt P43406 31-988; O54890 26-717); assay: SPR (Biacore T200), ICOSL immobilised on CM5, αvβ3 as analyte, Mn2+ (active integrin), kinetic 1:1 Langmuir fit (kd/ka)
T3 construct: also called mouse αvβ3 integrin
T3 sequence (P43406 31-988 limits assumed, chain 1 of 2): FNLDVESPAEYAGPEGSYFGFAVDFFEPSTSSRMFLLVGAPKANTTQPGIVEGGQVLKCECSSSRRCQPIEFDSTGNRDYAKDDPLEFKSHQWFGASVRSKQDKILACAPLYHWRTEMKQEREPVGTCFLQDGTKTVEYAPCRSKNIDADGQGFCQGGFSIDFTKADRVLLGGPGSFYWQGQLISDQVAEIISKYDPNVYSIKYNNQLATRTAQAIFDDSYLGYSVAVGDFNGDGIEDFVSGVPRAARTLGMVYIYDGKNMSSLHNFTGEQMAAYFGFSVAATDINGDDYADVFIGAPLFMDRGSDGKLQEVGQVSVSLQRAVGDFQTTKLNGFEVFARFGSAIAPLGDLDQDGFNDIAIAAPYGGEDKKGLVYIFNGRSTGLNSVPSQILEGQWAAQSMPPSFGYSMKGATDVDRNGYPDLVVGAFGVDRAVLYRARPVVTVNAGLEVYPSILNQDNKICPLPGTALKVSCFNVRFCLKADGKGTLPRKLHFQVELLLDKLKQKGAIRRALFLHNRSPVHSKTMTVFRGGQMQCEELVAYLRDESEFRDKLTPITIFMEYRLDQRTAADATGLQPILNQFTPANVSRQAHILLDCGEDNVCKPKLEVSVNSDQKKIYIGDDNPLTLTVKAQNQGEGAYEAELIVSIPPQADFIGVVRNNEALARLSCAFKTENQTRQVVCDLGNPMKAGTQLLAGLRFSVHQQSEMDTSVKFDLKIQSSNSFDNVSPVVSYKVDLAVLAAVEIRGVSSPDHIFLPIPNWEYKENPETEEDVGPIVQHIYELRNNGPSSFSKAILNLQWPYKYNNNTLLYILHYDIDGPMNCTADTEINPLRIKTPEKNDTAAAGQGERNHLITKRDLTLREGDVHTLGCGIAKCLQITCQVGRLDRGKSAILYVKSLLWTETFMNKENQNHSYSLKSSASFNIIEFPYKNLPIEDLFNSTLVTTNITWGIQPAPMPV
T3 sequence (O54890 26-717 limits assumed, chain 2 of 2): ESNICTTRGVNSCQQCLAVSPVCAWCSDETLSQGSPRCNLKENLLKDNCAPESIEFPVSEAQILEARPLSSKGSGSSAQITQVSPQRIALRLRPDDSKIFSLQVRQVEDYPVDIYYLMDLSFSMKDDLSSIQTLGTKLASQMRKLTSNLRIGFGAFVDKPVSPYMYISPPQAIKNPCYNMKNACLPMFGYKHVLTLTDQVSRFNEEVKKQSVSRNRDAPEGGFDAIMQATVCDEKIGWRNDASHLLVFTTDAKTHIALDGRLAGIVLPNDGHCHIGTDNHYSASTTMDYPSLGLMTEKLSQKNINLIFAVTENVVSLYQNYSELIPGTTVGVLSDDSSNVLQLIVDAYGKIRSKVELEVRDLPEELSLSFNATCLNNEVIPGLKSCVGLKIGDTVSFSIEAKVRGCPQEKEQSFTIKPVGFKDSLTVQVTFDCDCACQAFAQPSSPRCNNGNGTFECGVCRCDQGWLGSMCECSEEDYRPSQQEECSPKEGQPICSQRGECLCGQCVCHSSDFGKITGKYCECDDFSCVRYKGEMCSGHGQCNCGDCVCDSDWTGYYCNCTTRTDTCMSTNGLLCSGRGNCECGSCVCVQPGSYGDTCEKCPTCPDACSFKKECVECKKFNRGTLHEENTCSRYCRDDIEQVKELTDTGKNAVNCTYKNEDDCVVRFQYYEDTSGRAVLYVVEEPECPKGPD

[6] = target: T3, recombinant mouse integrin αvβ3 (R&D …); assay: SPR, ICOSL immobilised, αvβ3 as analyte, 0.2 mM Ca2+ and 0.1 mM Mg2+, kinetic 1:1 fit
[7] = target: T3, recombinant mouse integrin αvβ3 (R&D …); assay: SPR, ICOSL immobilised, inactive αvβ3 (EDTA, no Mn2+), steady-state affinity fit
[8] = target: T3, recombinant mouse integrin αvβ3 (R&D …); assay: SPR, ICOSL immobilised, αvβ3 as analyte, 2 mM Ca2+ and 1 mM Mg2+ (inactive integrin)
[9] = target: B1; assay: SPR
[10] = target: T1, recombinant human integrin αvβ3 (R&D …); assay: SPR, Mn2+ (active integrin)

## B1
[1]
  Kd: 0.0162 µM
[2]
  binding result: no binding
[3]
  binding result: no binding
[4]
  Kd: 0.412 µM

## B2
[5]
  Kd: 0.0242 µM
[6]
  Kd: 0.0213 µM
[7]
  Kd: ≥ 2000 µM
[8]
  Kd: 0.4 µM

## B3
[9]
  Kd: 0.005 µM

## B4
[10]
  binding result: no binding
